“And” between values parts separate entries of the source, which are not always exact repeats. Equal entries are not always repeated.
Molecular target: SARS-CoV-2 spike (two-proline stabilized S-2P extracellular domain fused to foldon) (SARS-CoV-2) (UniProt P0DTC2)

antibody S309 (Pinto et al., 2020)
Kd: 7 nM and 20 nM

Reference: US20240294611A1
